Assays:
[1] = target: FGFR3-IIIc stably expressed on FDCP cells (UniProt P22607); assay: cell-based or functional assay
[2] = target: FGFR1 extracellular domain, immobilized (R1-Fc) (UniProt P11362); assay: functional ELISA on immobilized FGFR
[3] = target: FGFR2 extracellular domain, immobilized (R2-Fc) (UniProt P21802); assay: functional ELISA on immobilized FGFR
[4] = target: FGFR3 extracellular domain, immobilized (R3-Fc) (UniProt P22607); assay: functional ELISA on immobilized FGFR
[5] = target: FGFR1 extracellular domain, immobilized (R1-Fc) (UniProt P11362); assay: ELISA: biotinylated ligand on immobilized FGFR-Fc, HRP-streptavidin
[6] = target: FGFR2 extracellular domain, immobilized (R2-Fc) (UniProt P21802); assay: as above
[7] = target: FGFR3 extracellular domain, immobilized (R3-Fc) (UniProt P22607); assay: as above

Chain of FGF-18^Δ31 (O76093 other isoform, or with tags, fused parts or gaps mutant limits assumed): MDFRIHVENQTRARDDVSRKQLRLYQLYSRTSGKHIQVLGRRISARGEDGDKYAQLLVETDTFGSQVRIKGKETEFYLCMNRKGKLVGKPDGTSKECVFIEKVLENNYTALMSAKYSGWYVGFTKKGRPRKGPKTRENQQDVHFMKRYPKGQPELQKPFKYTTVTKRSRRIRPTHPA
Chain of FGF-18^Δ51 (O76093 other isoform, or with tags, fused parts or gaps mutant limits assumed): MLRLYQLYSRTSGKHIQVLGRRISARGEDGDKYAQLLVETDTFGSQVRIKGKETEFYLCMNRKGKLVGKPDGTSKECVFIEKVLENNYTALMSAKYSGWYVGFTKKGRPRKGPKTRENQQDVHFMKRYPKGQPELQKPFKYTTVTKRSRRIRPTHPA
Chain of FGF-18 (recombinant wild type, mature form without the signal peptide) (O76093 other isoform, or with tags, fused parts or gaps): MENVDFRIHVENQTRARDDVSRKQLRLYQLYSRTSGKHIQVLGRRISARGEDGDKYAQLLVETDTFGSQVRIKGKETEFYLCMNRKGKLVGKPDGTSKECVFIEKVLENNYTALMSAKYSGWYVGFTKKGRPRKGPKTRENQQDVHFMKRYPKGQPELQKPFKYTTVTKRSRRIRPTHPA
Chain of FGF-18^Δ37 (O76093 other isoform, or with tags, fused parts or gaps mutant limits assumed): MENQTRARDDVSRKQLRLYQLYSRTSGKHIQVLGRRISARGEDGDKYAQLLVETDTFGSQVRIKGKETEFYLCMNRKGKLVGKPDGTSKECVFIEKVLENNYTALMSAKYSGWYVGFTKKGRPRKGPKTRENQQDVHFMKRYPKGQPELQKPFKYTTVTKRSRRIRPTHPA
Chain of FGF-18^Δ33 (O76093 other isoform, or with tags, fused parts or gaps mutant limits assumed): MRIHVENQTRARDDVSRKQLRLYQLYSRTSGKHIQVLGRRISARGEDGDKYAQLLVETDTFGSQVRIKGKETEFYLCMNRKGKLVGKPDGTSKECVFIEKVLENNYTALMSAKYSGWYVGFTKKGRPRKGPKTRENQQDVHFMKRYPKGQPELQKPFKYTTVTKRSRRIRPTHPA
Chain of FGF-18^Δ45 (O76093 other isoform, or with tags, fused parts or gaps mutant limits assumed): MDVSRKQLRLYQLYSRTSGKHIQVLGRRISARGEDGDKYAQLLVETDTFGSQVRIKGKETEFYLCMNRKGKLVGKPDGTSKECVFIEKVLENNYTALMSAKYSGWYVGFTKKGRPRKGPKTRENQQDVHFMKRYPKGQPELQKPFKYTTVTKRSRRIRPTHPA
Chain of FGFR3-IIIc stably expressed on FDCP cells (P22607 23-806): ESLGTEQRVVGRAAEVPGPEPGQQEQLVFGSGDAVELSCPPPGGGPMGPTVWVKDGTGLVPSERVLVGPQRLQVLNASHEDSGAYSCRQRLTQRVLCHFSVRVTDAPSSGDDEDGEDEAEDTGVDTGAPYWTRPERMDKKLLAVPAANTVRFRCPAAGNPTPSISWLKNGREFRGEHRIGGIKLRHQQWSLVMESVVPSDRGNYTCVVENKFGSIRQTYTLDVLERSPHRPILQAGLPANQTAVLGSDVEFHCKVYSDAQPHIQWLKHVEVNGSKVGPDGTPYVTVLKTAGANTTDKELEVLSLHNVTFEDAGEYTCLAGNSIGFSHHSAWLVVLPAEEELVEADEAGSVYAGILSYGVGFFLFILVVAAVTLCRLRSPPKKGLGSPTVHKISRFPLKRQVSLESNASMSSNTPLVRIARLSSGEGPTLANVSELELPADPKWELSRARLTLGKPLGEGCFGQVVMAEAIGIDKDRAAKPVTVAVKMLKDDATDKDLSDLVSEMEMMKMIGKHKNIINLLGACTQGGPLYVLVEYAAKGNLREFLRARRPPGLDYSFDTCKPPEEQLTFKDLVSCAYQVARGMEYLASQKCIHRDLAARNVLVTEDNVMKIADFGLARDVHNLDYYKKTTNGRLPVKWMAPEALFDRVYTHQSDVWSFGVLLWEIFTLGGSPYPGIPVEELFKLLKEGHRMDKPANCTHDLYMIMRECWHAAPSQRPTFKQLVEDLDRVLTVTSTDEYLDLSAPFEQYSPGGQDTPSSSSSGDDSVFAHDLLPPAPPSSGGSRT

| Substance | EC50 scores of FGF ligands in cell proliferation of FDCPR3 [1] [ng/mL] | EC50 [2] [ng/mL] | EC50 [3] [ng/mL] | EC50 [4] [ng/mL] | EC50 [5] [ng/mL] | EC50 [6] [ng/mL] | EC50 [7] [ng/mL] |
| --- | --- | --- | --- | --- | --- | --- | --- |
| FGF-2 wild type (from UniProt P09038 134-288) (ligand) | 1.19 |  |  |  |  |  |  |
| FGF-18 (recombinant wild type, mature form without the signal peptide) (from UniProt O76093 29-207) (ligand) |  | 22.8 | 8.76 | 6.59 | 28.2 | 9.51 | 5.04 |
| FGF-18^Δ31 (from UniProt O76093 32-207) (ligand) |  | 24.4 | 11.2 | 8.55 |  |  |  |
| FGF-18^Δ33 (from UniProt O76093 34-207) (ligand) |  |  |  | 8.27 |  |  |  |
| FGF-18^Δ37 (from UniProt O76093 38-207) (ligand) |  |  |  | 9.75 |  |  | 5.94 |
| FGF-18^Δ45 (from UniProt O76093 46-207) (ligand) |  |  |  |  |  |  | 9.16 |
| FGF-18^Δ51 (from UniProt O76093 52-207) (ligand) |  | 41.9 | 43.5 | 9.99 |  |  | 10.2 |
